The values below come from paper PMC8158037.

The target in this experiment is δ-toxin (secreted by S. aureus MW2 and its ΔPSMα strain) (Staphylococcus aureus MW2). The experiment can be described thus: AUC + SEC-MALS + native MS + cross-linking. (SEC sorts molecules by how far they enter the pores of the column.)

Usually stoichiometry N stands for the number of molecules, sites or subunits per partner or assembly. Take “δ-toxin (secreted by S. aureus MW2 and its ΔPSMα strain) (peptide)”: the stoichiometry N stood at 8.
